{"source": "paper PMC4988437", "about": "(Channels, 2016)", "binders": {"B1": {"name": "YFP-tagged alpha1C N-terminus (domain or fragment)", "chain": "not shown"}}, "assay_in_all_cases": "FRET or BRET", "key": {"CFP-Rem(224-297)": {"target": "T1, CFP-Rem(224-297) (mouse, UniProt O35929 224-297)", "T1 sequence (looked up)": "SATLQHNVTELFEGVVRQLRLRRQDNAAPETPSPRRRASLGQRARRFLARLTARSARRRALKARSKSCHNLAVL"}, "CFP-Rem(1-285)": {"target": "T2, CFP-Rem(1-285) (mouse, UniProt O35929 1-285)", "T2 sequence (looked up)": "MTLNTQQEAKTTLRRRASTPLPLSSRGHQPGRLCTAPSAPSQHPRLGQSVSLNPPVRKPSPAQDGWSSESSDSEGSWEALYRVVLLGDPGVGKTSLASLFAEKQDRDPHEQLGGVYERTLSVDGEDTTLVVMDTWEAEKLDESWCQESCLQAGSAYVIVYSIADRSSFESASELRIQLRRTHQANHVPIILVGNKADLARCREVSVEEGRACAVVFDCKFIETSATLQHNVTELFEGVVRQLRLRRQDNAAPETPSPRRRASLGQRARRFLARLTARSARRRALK"}, "CFP-Rem(1-275)": {"target": "T3, CFP-Rem(1-275) (mouse, UniProt O35929 1-275)", "T3 sequence (looked up)": "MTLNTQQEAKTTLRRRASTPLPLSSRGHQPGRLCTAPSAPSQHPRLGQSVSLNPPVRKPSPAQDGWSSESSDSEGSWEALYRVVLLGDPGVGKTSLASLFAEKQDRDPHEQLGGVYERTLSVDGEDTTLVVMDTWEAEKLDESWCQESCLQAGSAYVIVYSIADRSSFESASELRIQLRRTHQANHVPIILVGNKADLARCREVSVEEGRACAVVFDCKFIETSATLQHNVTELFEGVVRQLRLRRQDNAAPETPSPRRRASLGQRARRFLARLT"}}}
{"binder": "B1", "values": [{"measurement": "FRET efficiency", "setting": "CFP-Rem(224-297)", "result": 0.439}, {"measurement": "FRET efficiency", "setting": "CFP-Rem(1-285)", "result": 0.071}, {"measurement": "FRET efficiency", "setting": "CFP-Rem(1-275)", "result": 0.04}]}
